Assay [1] addresses T1, rat DLK1 fused to mGFP, overexpressed on HEK293T cells (rat, UniProt O70534 24-383).
T1 construct: whole, on cells; not shown: mGFP fluorescent protein fused to DLK1
T1 sequence (looked up): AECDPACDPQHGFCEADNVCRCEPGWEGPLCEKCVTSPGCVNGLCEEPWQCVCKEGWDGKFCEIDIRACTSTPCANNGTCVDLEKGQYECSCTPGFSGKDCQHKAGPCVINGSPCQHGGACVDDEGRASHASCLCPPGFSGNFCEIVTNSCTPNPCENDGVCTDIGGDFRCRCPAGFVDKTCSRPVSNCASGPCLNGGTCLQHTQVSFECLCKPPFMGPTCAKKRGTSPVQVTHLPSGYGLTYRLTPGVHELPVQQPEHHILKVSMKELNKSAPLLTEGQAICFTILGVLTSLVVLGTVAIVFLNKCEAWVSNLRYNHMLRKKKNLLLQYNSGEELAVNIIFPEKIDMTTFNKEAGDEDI
Description: flow cytometry, row HEK293T Rat DLK1mGFP mass pop.

For assay [2], the target named is T2, monkey DLK1 fused to mGFP, overexpressed on HEK293T cells (monkey (crab-eating macaque), UniProt A0A2K5TMQ6 24-383).
T2 construct: whole, on cells; also called crab-eating macaque DLK1; not shown: mGFP fluorescent protein fused to DLK1
T2 sequence: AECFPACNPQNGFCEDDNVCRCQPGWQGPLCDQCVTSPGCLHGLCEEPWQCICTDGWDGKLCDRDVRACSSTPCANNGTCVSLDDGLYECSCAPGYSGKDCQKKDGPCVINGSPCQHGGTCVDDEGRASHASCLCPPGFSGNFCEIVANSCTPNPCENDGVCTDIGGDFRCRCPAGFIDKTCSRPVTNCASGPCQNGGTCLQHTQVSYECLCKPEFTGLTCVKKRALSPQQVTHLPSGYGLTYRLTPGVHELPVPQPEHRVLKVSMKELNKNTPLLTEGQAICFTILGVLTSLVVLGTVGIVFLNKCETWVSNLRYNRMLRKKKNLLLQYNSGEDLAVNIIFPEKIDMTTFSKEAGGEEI
Kind of assay: KinExA on HEK293T DLK1mGFP Monkey mass pop cells detached by Versene; Error% 2.87; 95% CI 1.33nM - 3.45nM; equilibrium curves 400pM, 50nM.

The target in assay [3] is T3, DLK1 ECD-mFc short form (human DLK1-MB, isoform 2) (human, UniProt P80370 24-228).
T3 construct: also called short form of the human DLK1 protein (ELISA coat); not shown: mFc (monomeric immunoglobulin Fc domain)
T3 sequence: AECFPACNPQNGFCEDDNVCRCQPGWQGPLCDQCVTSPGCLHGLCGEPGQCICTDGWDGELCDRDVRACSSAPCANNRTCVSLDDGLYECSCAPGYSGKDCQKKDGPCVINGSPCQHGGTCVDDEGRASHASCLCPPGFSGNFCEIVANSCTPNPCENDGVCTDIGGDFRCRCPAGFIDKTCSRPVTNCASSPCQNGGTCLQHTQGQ
Kind of assay: ELISA, plate coated with short form of DLK1 ECD-mFc (isoform 2), anti-human IgG Fc-HRP, OD450nm. The method, then:
(§1) Plates were incubated with DLK1 Abs serially diluted 2-fold starting from 400 ng/ml in 5% BSA/PBS at RT for 1.5 hrs. Mouse anti-human IgG Fc secondary antibody conjugated to HRP (Novus catalog number: NBP1-78623H) at 1:3000 dilution was applied to each well at 50 μl/well and further incubated at RT for 1 hr. The ELISA was developed first with Thermo Scientific Pierce 1-Step™ Ultra TMB-ELISA substrate solution and then with addition of sulfuric acid stop solution. The ELISA plate was read on a plate reader at 450 nm.
On the technique in general: ELISA stands for enzyme-linked immunosorbent assay.

For assay [4], the target named is T4, DLK1 ECD-mFc long form (human DLK1-FL, isoform 1) (human, UniProt P80370 24-303).
T4 construct: also called long form of the human DLK1 protein (ELISA coat); not shown: mFc (monomeric immunoglobulin Fc domain)
T4 sequence: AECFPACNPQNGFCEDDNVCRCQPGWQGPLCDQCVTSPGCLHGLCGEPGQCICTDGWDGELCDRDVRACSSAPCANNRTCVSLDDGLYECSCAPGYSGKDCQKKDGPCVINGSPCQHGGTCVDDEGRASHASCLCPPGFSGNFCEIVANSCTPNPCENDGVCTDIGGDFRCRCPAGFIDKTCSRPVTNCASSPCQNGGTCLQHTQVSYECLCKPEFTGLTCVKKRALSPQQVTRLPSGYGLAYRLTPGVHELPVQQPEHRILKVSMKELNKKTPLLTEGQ
Kind of assay: ELISA, plate coated with DLK1 ECD-mFc long form. The method, then:
as §1

In assay [5] the target is T2, monkey DLK1 fused to mGFP, …. Kind of assay: KinExA on HEK293T DLK1mGFP Monkey mass pop cells detached by Versene; Error% 3.92; 95% CI 5.15nM - 17.83nM; equilibrium curves 400pM, 50nM.
Assay [6] concerns the target T1, rat DLK1 fused to mGFP, overexpressed …. Kind of assay: KinExA on cells, row HEK293T Rat DLK1mGFP mass pop. (In general: Kinetic exclusion samples the free partner from a solution-phase mixture.)
Assay [7] concerns the target T5, recombinant fusion protein of human DLK1 extracellular domain (ECD) and monomeric immunoglobulin Fc domain … (human, UniProt P80370 24-303).
T5 construct: also called human DLK1 ECD-mFc fusion protein; not shown: monomeric immunoglobulin Fc domain (mFc)
T5 sequence: T4 sequence
Description: affinity on recombinant DLK1 ECD-mFc; method not stated.

We go through two molecules from patent US20250042992A1 (University of California, published 2025).

B1: humanized anti-DLK1 antibody 04-0561-F1 (IgG1) (antibody, V domains shown)
VH: QVQLQESGPGLVKPSETLSLTCTVSGFSLSIYSVHWVRQPPGKGLEWIGLIWGGGSTDYNPSLKSRVTISKDTSKNQVSLKLSSVTAADTAVYYCARKEGNYLWFAYWGQGTLVTVSS
VL: DIVMTQSPDSLAVSLGERVTMNCKSSQSLLQSSNQKNYLAWYQQKPGQPPKLLVYFASTRESGVPDRFSGSGSGTDFTLTISSVQAEDVAVYYCQQHYSIPLTFGQGTKLEIKR
A word on the Kd: it is the equilibrium constant for the complex coming apart. The EC50 is the concentration that produces a half-maximal response. For B1, the binding result in assay [1] is “no binding (tested: 20µg/ml)”. In assay [2], this molecule had a Kd of 2.19 nM. In addition, the EC50 in assay [3] was 0.81 nM. Further, the “fold higher binding affinity than LegoChem 18A5 antibody for human DLK1-FL” value in assay [4] is above 20 fold.

B2: humanized anti-DLK1 antibody 04-0547-h2 (IgG1) (antibody, V domains shown)
VH: EVQLVESGGGLVQPGGSLRLSCAASGFSISDYYMAWVRQAPGKGLEWVANINYDGTNTYYADSVKGRFTISRDNSKNTLYLQMNSLRAEDTAVYYCVRSYYYYGMEYWGQGTTVTVSS
VL: DIQMTQSPSSLSASVGDRVTITCRASHDVSTAVAWYQQKPGKAPKLLIYSASYRYTGVPSRFSGSGSGTDFTLTISSLQPEDFATYYCQQHYRIPLTFGQGTKLEIK
notes: human kappa (P01834) and human IgG1 (P01857) constant regions
Turning to B2, the Kd in assay [5] was 9.89 nM; in assay [6] it was 5.96 nM; in assay [7], around 0.3 nM.
